Columns and labels:
Assay type in all cases: biochemical
[1] = HTP-analysis of yeast culture supernatants, no challenge (MUGal hydrolysis); details: activity of the variant/activity of WT GLA (SEQ ID NO: 5), yeast supernatant
Method in brief: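 GLA variants were expressed in INVSc1 yeast grown in SD-Ura broth with glucose at 30° C., and culture supernatants were collected after 66-84 h. Supernatant was mixed with McIlvaine buffer pH 4.8 and MUGal (2 mM stock) in 50 mM citrate, 200 mM KCl, pH 4.6, incubated at 37° C. for 30-180 minutes, then quenched with sodium carbonate.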

[2] = HTP-analysis of supernatants pretreated with acid (MUGal hydrolysis); details: challenge at pH 4.2; activity of the variant/activity of WT GLA (SEQ ID NO: 5); yeast supernatant
Method in brief: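 Yeast INVSc1 supernatant, GLA variants; acid challenge: McIlvaine pH 3.3-4.3, 37° C., 1-3 h. Assay: MUGal in McIlvaine pH 4.8 plus citrate pH 4.3, 37° C., 30-180 min, Na2CO3 stop, Ex 355/Em 448 nm.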

[3] = HTP-analysis of supernatants pretreated with base (MUGal hydrolysis); details: challenge at pH 7.1; activity of the variant/activity of WT GLA (SEQ ID NO: 5); yeast supernatant
Method in brief: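 GLA variants were secreted by transformed INVSc1 yeast grown 66-84 h at 30° C. Supernatants were exposed to neutral-to-basic buffers (pH 7.0-9.7) at 37° C for 1-18 h, then assayed with MUGal in acidic citrate/McIlvaine buffer, with fluorescence read after quenching.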

Molecule | Relative Activity of GLA Variants After No Challenge (NC) [1] | Relative Activity of GLA Variants After Challenge at pH 4.2 [2] | Relative Activity of GLA Variants After Challenge at pH 7.1 [3]
124 (protein, Synthetic Polypeptide sequence of Variant No. 124 of mature Human GLA) LDNGLARTPTMGWLHWERFMCNLDCQEEPDSCISEKLFMEMAELMVSEGWKDAGYEYLCIDDCWMAPQRDSEGRLQADPQRFPHGIRQLANYVHSKGLKLGIYADVGNKTCAGFPGSFGYYDIDAQTFADWGVDLLKFDGCYCDSLENLADGYKHMSLALNRTGRSIVYSCEWPLYMWPFQKPNYTEIRQYCNHWRNFADIDDSWKSIKSILDWTSFNQERIVDVAGPGGWNDPDMLVIGNFGLSWNQQVTQFALWAIMAAPLFMSNDLRHISPQAKALLQDKDVIAINQDPLGKQGYQLRQGDNFEVWERPLSGLAWAVAMINRQEIGGPRSYTIAVASLGKGVACNPACFITQLLPVKRKLGFYEWTSRLRSHINPTGTVLLQLENTMQMSKDLLL | ++ (++ = >1.5 to 2.5 relative activity over WT GLA (SEQ ID NO: 5)) | ++ (++ = >1.5 to 2.5 relative activity over WT GLA (SEQ ID NO: 5)) | + (+ = 0.5 to 1.5 relative activity over WT GLA (SEQ ID NO: 5))
131 (protein, Synthetic Polypeptide sequence of Variant No. 131 of mature Human GLA) LDNGLARTPTMGWLHWERFMCNLDCQEEPDSCISEKLFMEMAELMVSEGWKDAGYEYLCIDDCWMAPQRDSEGRLQADPQRFPHGIRQLANYVHSKGLKLGIYADVGNKTCAGFPGSFGYYDIDAQTFADWGVDLLKFDGCYCDSLENLADGYKHMSLALNRTGRSIVYSCEWPLYMWPFQKPNYTEIRQYCNHWRNFADIDDSWKSIKSILDWTSFNQERIVDVAGPGGWNDPDMLVIGNFGLSWNQQVTQMALWAIMAAPLFMSNDLRHISPQAKALLQDKDVIAINQDPLGKQGYQLRQGDNFEVWERPLSGLAWAVAMINRQEIGGPRSYTIAVASLGKGVACNPACFITQLLPVKRKLGFYEWTSRLRSHINPTGTVLLQLENTMQSSKDLLL | ++ (++ = >1.5 to 2.5 relative activity over WT GLA (SEQ ID NO: 5)) | + (+ = 0.5 to 1.5 relative activity over WT GLA (SEQ ID NO: 5)) | ++ (++ = >1.5 to 2.5 relative activity over WT GLA (SEQ ID NO: 5))
129 (protein, Synthetic Polypeptide sequence of Variant No. 129 of mature Human GLA) LDNGLARTPTMGWLHWERFMCNLDCQEEPDSCISEKLFMEMAELMVSEGWKDAGYEYLCIDDCWMAPQRDSEGRLQADPQRFPHGIRQLANYVHSKGLKLGIYADVGNKTCAGFPGSFGYYDIDAQTFADWGVDLLKFDGCYCDSLENLADGYKHMSLALNRTGRSIVYSCEWPLYMWPFQKPNYTEIRQYCNHWRNFADIDDSWKSIKSILDWTSFNQERIVDVAGPGGWNDPDMLVIGNFGLSWNQQVTQMALWAIMAAPLFMSNDLRHISPQAKALLQDKDVIAINQDPLGKQGYQLRQGDNFEVWERPLSGLAWAVAMINRQEIGGPRSYTIAVASLGKGVACNPACFITQLLPVKRKLGFYEWTSRLRSHINPTGTVLLQLENTMQGSKDLLL | + (+ = 0.5 to 1.5 relative activity over WT GLA (SEQ ID NO: 5)) | ++ (++ = >1.5 to 2.5 relative activity over WT GLA (SEQ ID NO: 5)) | ++ (++ = >1.5 to 2.5 relative activity over WT GLA (SEQ ID NO: 5))
127 (protein, Synthetic Polypeptide sequence of Variant No. 127 of mature Human GLA) LDNGLARTPTMGWLHWERFMCNLDCQEEPDSCISEKLFMEMAELMVSEGWKDAGYEYLCIDDCWMAPQRDSEGRLQADPQRFPHGIRQLANYVHSKGLKLGIYADVGNKTCAGFPGSFGYYDIDAQTFADWGVDLLKFDGCYCDSLENLADGYKHMSLALNRTGRSIVYSCEWPLYMWPFQKPNYTEIRQYCNHWRNFADIDDSWKSIKSILDWTSFNQERIVDVAGPGGWNDPDMLVIGNFGLSWNQQVTQMALWAIMAAPLFMSNDLRHISPQAKALLQDKDVIAINQDPLGKQGYQLRQGDNFEVWERPLSGLAWAVAMINRQEIGGPRSYTIAVASLGKGVACNPACFITQLLPVKRKLGFYEWTSRLRSHINPTGTVLLQLENTRQMSKDLLL | ++ (++ = >1.5 to 2.5 relative activity over WT GLA (SEQ ID NO: 5)) | ++ (++ = >1.5 to 2.5 relative activity over WT GLA (SEQ ID NO: 5)) | ++ (++ = >1.5 to 2.5 relative activity over WT GLA (SEQ ID NO: 5))
125 (protein, Synthetic Polypeptide sequence of Variant No. 125 of mature Human GLA) LDNGLARTPTMGWLHWERFMCNLDCQEEPDSCISEKLFMEMAELMVSEGWKDAGYEYLCIDDCWMAPQRDSEGRLQADPQRFPHGIRQLANYVHSKGLKLGIYADVGNKTCAGFPGSFGYYDIDAQTFADWGVDLLKFDGCYCDSLENLADGYKHMSLALNRTGRSIVYSCEWPLYMWPFQKPNYTEIRQYCNHWRNFADIDDSWKSIKSILDWTSFNQERIVDVAGPGGWNDPDMLVIGNFGLSWNQQVTQMALWAIMAAPLFMSNDLRHISPQAKALLQDKDVIAINQDPLGKQGYQLRQGDNFEVWERPLSGLAWAVAIINRQEIGGPRSYTIAVASLGKGVACNPACFITQLLPVKRKLGFYEWTSRLRSHINPTGTVLLQLENTMQMSKDLLL | + (+ = 0.5 to 1.5 relative activity over WT GLA (SEQ ID NO: 5)) | + (+ = 0.5 to 1.5 relative activity over WT GLA (SEQ ID NO: 5)) | + (+ = 0.5 to 1.5 relative activity over WT GLA (SEQ ID NO: 5))
128 (protein, Synthetic Polypeptide sequence of Variant No. 128 of mature Human GLA) LDNGLARTPTMGWLHWERFMCNLDCQEEPDSCISEKLFMEMAELMVSEGWKDAGYEYLCIDDCWMAPQRDSEGRLQADPQRFPHGIRQLANYVHSKGLKLGIYADVGNKTCAGFPGSFGYYDIDAQTFADWGVDLLKFDGCYCDSLENLADGYKHMSLALNRTGRSIVYSCEWPLYMWPFQKPNYTEIRQYCNHWRNFADIDDSWKSIKSILDWTSFNQERIVDVAGPGGWNDPDMLVIGNFGLSWNQQVTQMALWAIMAAPLFMSNDLRHISPQAKALLQDKDVIAINQDPLGKQGYQLRQGDNFEVWERPLSGLAWAVAMINRQEIGGPRSYTIAVASLGKGVACNPACFITQLLPVKRKLGFYEWTSRLRSHINPTGTVLLQLENTTQMSKDLLL | + (+ = 0.5 to 1.5 relative activity over WT GLA (SEQ ID NO: 5)) | + (+ = 0.5 to 1.5 relative activity over WT GLA (SEQ ID NO: 5)) | + (+ = 0.5 to 1.5 relative activity over WT GLA (SEQ ID NO: 5))
130 (protein, Synthetic Polypeptide sequence of Variant No. 130 of mature Human GLA) LDNGLARTPTMGWLHWERFMCNLDCQEEPDSCISEKLFMEMAELMVSEGWKDAGYEYLCIDDCWMAPQRDSEGRLQADPQRFPHGIRQLANYVHSKGLKLGIYADVGNKTCAGFPGSFGYYDIDAQTFADWGVDLLKFDGCYCDSLENLADGYKHMSLALNRTGRSIVYSCEWPLYMWPFQKPNYTEIRQYCNHWRNFADIDDSWKSIKSILDWTSFNQERIVDVAGPGGWNDPDMLVIGNFGLSWNQQVTQMALWAIMAAPLFMSNDLRHISPQAKALLQDKDVIAINQDPLGKQGYQLRQGDNFEVWERPLSGLAWAVAMINRQEIGGPRSYTIAVASLGKGVACNPACFITQLLPVKRKLGFYEWTSRLRSHINPTGTVLLQLENTMQPSKDLLL | + (+ = 0.5 to 1.5 relative activity over WT GLA (SEQ ID NO: 5)) | ++ (++ = >1.5 to 2.5 relative activity over WT GLA (SEQ ID NO: 5)) | + (+ = 0.5 to 1.5 relative activity over WT GLA (SEQ ID NO: 5))
126 (protein, Synthetic Polypeptide sequence of Variant No. 126 of mature Human GLA) LDNGLARTPTMGWLHWERFMCNLDCQEEPDSCISEKLFMEMAELMVSEGWKDAGYEYLCIDDCWMAPQRDSEGRLQADPQRFPHGIRQLANYVHSKGLKLGIYADVGNKTCAGFPGSFGYYDIDAQTFADWGVDLLKFDGCYCDSLENLADGYKHMSLALNRTGRSIVYSCEWPLYMWPFQKPNYTEIRQYCNHWRNFADIDDSWKSIKSILDWTSFNQERIVDVAGPGGWNDPDMLVIGNFGLSWNQQVTQMALWAIMAAPLFMSNDLRHISPQAKALLQDKDVIAINQDPLGKQGYQLRQGDNFEVWERPLSGLAWAVAMINRQEIGGPRSYTIAVASLGKGVACNPACFITQLLPVKRKLGFYEWTSRLRSHINPTGTVLLQLENTDQMSKDLLL | +++ (+++ = >2.5 relative activity over WT GLA (SEQ ID NO: 5)) | +++ (+++ = >2.5 relative activity over WT GLA (SEQ ID NO: 5)) | +++ (+++ = >2.5 relative activity over WT GLA (SEQ ID NO: 5))

Source: US11278600B2, “Human alpha-galactosidase variants” (Codexis, Inc., priority 2014, dated 2022)
